Source: patent publication US20110039779A1 (published 2011)
Where “and” joins values, the source holds several entries; their conditions need not be identical. Equal entries are not always repeated. Values belong to the binder of their own block, whether it stands above or below them. Where no end group is shown, it is not given here. [ ]: non-standard residue; d: D form. pGlu = O=C1CC[C@@H](C(=O)O)N1

Key:
IGF-1R on SW480 cells [1] = molecular target: T1, IGF-1R on SW480 cells (UniProt P08069 31-1367, limits assumed); assay: cell-based or functional assay
[2] = molecular target: T2, IGF-1R on MCF-7 cells (MCF-7S8, MCF7) (human, UniProt P08069 31-1367); assay: cell-based or functional assay
IGF-1R on SW480 cells [3] = molecular target: T1, IGF-1R on SW480 cells; assay: cell-based or functional assay; remark: listed apart in the source
[4] = molecular target: T3, Human IGF-1R (HIGF-1R), purified from BHK cells stably transfected with IGF-1R cDNA (human, UniProt P08069 31-1367); assay: competition with 125I-IGF-1 on purified HIGF-1R (PEG or SPA assay; the sentence does not say which)
T3 construct: mature; Detergent-solubilised whole receptor, not on cells; form 'mature' is my reading of 'purified from ... cells stably transfected with IGF-1R cDNA'; also called human insulin-like growth factor-1 receptor; purified HIGF-1R
T3 sequence (P08069 31-1367 limits assumed): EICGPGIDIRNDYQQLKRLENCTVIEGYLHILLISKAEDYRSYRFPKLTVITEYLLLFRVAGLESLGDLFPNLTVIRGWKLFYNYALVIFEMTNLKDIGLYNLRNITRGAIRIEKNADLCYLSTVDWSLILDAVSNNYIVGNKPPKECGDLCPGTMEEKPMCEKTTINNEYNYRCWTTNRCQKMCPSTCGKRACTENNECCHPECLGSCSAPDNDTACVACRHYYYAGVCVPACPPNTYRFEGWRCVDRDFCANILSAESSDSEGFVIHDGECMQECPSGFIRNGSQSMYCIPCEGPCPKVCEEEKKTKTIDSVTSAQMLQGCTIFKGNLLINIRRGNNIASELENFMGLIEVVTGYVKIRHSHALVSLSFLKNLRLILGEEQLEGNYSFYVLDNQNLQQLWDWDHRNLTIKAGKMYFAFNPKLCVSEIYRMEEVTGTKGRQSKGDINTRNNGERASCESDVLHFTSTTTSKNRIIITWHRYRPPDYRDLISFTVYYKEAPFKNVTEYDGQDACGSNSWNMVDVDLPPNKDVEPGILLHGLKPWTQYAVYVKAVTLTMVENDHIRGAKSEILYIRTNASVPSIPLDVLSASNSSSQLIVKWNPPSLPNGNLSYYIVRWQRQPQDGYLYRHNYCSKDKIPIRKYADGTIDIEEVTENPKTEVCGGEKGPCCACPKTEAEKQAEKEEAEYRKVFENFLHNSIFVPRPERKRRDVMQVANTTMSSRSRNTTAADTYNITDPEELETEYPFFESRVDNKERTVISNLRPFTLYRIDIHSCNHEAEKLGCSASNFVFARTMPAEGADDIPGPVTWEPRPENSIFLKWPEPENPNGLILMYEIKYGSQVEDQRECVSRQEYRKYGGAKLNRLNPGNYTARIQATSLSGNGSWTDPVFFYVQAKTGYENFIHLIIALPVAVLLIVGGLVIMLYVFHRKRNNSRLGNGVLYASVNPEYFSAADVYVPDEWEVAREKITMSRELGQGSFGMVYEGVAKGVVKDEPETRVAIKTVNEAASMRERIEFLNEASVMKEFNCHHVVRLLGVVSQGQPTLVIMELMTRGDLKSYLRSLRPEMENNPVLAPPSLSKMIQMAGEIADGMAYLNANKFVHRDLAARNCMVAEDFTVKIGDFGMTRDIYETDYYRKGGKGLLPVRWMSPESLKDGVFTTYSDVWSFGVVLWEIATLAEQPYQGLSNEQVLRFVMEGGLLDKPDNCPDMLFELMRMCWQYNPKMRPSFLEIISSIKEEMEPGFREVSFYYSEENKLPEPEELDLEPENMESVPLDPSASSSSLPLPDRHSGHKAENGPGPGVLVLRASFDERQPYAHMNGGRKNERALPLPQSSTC

[5] = molecular target: IGF-1R on SW480, MCF-7 and MiaPaCa cells (human, UniProt P08069 31-1367); assay: cell-based or functional assay
[6] = molecular target: T4, His-tagged soluble recombinant human IGF-IR (srhIGF-1R-his; R&D systems) (human, UniProt P08069 31-935); assay: AlphaScreen competition with biotinylated hIGF-1 on srhIGF-1R-his
T4 construct: extracellular domain; Bought protein; also called extra-cellular domain of IGF-1R; not shown: His tag
Experimental: Binding Assays. […] Detection of the receptor ligand interaction was measured in an amplified luminescent proximity homogeneous assay (ALPHAScreen; BioSignal-Packard, Montreal). The assay was performed in 384-well Nunc™ white polystyrene microplates (Nalge Nunc International, Naperville, Ill.) with a final volume of 40 μL. […] Each concentration of competitor was assayed in duplicate. […] The second step of the assay was to add acceptor beads and the incubation continued for 0.5 hr. The final step was to add donor beads and the incubation continued for an additional 1 hr. […] Primary data were background corrected, normalized to buffer controls and then expressed as % Specific Binding. The data were fit to a four-parameter non-linear regression analysis (y=min+(max-min)/(1+10̂((log IC₅₀-x)*Hillslope))), which was used to determine IC₅₀ values. The Z′-factor for this assay is greater than 0.7 (Z′=1-(3σ++3σ−)/|μ+−μ−|) and the signal-to-background (SB) ratio was between 40 and 70.

[7] = molecular target: Human IGF-1R (HIGF-1R), purified from BHK cells stably transfected with IGF-1R cDNA (human, UniProt P08069 31-1367); assay: cell-based or functional assay
Target sequence in this assay (P08069 31-1367 limits assumed): as above

IGF-1R on L6 cells [8] = assay: cell-based or functional assay
[9] = molecular target: T3, Human IGF-1R (HIGF-1R), purified from …; assay: cell-based or functional assay; remark: listed apart in the source
IGF-1R on L6 cells [10] = assay: cell-based or functional assay; remark: listed apart in the source
Target sequence in this assay (P24062 31-737, chain 1 of 2): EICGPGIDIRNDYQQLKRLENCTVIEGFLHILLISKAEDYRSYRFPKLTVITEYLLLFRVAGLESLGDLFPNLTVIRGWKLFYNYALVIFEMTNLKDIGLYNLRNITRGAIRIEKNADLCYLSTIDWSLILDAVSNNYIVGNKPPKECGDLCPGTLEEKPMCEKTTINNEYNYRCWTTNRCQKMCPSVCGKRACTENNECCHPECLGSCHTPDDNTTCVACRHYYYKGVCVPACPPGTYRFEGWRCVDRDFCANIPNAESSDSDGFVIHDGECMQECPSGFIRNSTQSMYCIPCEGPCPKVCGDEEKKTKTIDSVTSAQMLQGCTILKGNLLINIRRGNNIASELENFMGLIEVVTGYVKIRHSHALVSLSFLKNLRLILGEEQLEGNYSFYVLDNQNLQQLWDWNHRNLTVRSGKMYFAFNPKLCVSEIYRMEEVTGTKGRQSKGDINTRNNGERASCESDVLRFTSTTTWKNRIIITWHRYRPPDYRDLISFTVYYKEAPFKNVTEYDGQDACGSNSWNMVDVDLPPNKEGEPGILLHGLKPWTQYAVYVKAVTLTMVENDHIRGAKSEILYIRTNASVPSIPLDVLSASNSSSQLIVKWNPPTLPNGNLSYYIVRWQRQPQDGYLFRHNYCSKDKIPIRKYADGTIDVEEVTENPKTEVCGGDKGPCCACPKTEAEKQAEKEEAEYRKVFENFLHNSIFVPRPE
Target sequence in this assay (P24062 742-1370, chain 2 of 2): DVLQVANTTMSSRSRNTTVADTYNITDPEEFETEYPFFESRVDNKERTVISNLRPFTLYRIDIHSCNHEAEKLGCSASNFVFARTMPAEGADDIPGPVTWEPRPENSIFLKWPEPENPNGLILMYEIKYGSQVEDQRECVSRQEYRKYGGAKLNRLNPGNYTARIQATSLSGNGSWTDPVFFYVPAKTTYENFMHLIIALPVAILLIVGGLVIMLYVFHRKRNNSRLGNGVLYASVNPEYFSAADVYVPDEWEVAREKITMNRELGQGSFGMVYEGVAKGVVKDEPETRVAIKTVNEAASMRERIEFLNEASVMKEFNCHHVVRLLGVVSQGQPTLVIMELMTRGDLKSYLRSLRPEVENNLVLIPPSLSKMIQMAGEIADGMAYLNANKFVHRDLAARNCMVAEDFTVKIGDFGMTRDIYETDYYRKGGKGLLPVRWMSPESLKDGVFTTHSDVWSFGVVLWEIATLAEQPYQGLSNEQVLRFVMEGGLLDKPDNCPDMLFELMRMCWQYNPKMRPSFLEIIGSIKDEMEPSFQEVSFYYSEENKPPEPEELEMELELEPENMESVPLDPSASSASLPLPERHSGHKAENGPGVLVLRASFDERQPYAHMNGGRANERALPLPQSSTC

[11] = molecular target: T2, IGF-1R on MCF-7 cells (MCF-7S8, MCF7); assay: cell-based or functional assay; remark: listed apart in the source

T2 sequence (P08069 31-1367): as the sequence (P08069 31-1367 limits assumed) above
T1 sequence (P08069 31-1367 limits assumed): as above
Chain of IGF-1R on SW480, MCF-7 and MiaPaCa cells (P08069 31-1367): as the sequence (P08069 31-1367 limits assumed) above
T4 sequence (P08069 31-935): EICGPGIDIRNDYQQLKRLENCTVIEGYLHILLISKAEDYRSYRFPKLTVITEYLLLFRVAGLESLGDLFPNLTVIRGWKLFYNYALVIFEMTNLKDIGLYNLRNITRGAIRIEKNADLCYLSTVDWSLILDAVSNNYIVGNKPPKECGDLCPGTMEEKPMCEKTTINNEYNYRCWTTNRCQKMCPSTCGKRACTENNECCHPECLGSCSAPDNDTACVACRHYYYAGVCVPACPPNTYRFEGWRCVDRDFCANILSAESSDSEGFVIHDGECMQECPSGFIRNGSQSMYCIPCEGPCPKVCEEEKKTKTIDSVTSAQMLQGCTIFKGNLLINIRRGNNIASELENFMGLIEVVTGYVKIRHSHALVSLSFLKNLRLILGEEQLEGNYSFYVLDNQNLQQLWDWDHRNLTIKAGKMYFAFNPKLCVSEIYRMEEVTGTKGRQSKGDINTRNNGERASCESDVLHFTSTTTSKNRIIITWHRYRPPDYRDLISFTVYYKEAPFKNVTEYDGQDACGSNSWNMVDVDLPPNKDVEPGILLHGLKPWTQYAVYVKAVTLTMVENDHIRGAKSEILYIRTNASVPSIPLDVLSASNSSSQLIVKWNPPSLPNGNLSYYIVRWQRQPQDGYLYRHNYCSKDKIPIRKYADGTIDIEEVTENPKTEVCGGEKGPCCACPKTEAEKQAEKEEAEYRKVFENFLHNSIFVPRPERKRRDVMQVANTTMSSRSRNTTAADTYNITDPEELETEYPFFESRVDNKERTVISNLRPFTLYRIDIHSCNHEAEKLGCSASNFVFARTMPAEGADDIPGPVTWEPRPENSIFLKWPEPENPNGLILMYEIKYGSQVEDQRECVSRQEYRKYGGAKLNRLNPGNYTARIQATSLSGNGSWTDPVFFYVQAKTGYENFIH

Binder: SFYSCLESLVAGPAEKSRGQWEGCRK [F259, listing 1 of 2 here]
IC50 in SW480 (M) in presence of IGF-1 (IGF-1R on SW480 cells [1]): 2e-06 M | IC50 in MCF-7S8, in presence of IGF-1 [2]: 5000 nM and 2000 nM | IC50, IGF-1 (10 nM)-induced proliferation of SW480 cells, exp. 13262-014 (IGF-1R on SW480 cells [3]): > 10000 nM

Binder: QFYGCLLDLSLGVPSFGWRRRCITA [F138]
Kd [4]: 6 to 10 nM | IC50, IGF-1 dependent growth in MCF-7 [5]: 500 nM | IC50, IGF-1 dependent growth in SW480 [5]: 150 nM

Binder: EDWLRCLGVILSGGLTELANTGCVQGE [F167]
IC50 in kinase assay (M), IGF-1R kinase activation by 10 nM IGF-1 [7]: 1e-06 M

Binder: EFGRGYGGDGGGYWSGYEWLAE [F207]
IC50 in SW480 (M) in presence of IGF-1 (IGF-1R on SW480 cells [1]): 2e-06 M | IC50 in MCF-7S8, in presence of IGF-1 [2]: 2000 nM | IC50 in kinase assay (M), IGF-1R kinase activation by 10 nM IGF-1 [7]: 2e-07 M

Binder: ESFYSCLASLVAGTPWPKGGSWERCREE [F230]
Kd [4]: 20 to 50 nM

Binder: SFYSCLESLVAGPAEKSRGQWEGCRK [F259, listing 2 of 2 here]
IC50, IGF-1R kinase activation by IGF-1 [9]: 200 nM and 300 nM

Binder: EFSGFCMGLERLSQVSLGYCGAGQGGE [F169]
IC50 in SW480 (M) in presence of IGF-1 (IGF-1R on SW480 cells [1]): 2e-06 M | IC50 in MCF-7S8, in presence of IGF-1 [2]: 2000 nM

Binder: [pGlu]FYGCLLDLSLGVPSFGWRRRCITA (cysteine pairing not given here) [F138P]
IC50, IGF-1 dependent growth in SW480 [5]: 500 nM

Binder: ESFYSCLESLVNGPAEKSRGQWDGCRE [F215]
Kd [4]: 80 to 300 nM

Continued, values first:

IC50 in SW480 (M), peptide alone (IGF-1R on SW480 cells [1]): 1e-07 M | IC50 in MCF-7S8, in presence of IGF-1 [2]: 10000 nM | IC50 in MCF-7S8, peptide alone [2]: > 10000 nM | IC50 [6]: 9 nM | IC50 in kinase assay (M), IGF-1R kinase activation by 10 nM IGF-1 [7]: 1e-07 M | IC50, down regulation of 3 nM IGF-1 stimulation to basal level, IGF-IR, L6 cells (IGF-1R on L6 cells [8]): 500 nM | IC50, down regulation of 3 nM IGF-1 stimulation to basal level, IRS-1, L6 cells (IGF-1R on L6 cells [8]): > 1000 nM | IC50, down regulation of 3 nM IGF-1 stimulation to basal level, MAPK42, L6 cells (IGF-1R on L6 cells [8]): 1000 nM | IC50, down regulation of 3 nM IGF-1 stimulation to basal level, MAPK44, L6 cells (IGF-1R on L6 cells [8]): 500 nM | IC50, down regulation of 3 nM IGF-1 stimulation to basal level, PKB/Akt, L6 cells (IGF-1R on L6 cells [8]): > 1000 nM
Binder: SFYSCLESLVQGPAEKSRGQWEGCRK [F293, listing 1 of 2 here]

IC50, IGF-1 dependent growth in SW480 [5]: 2000 nM
Binder: ESYGDCRDRPCGDAPNFYDWFVQQASE [F270]

IC50, IGF-1 dependent growth in SW480 cells [5]: > 1000 nM
Binder: RQWDCRGRPCGDAESFYEWFDQQRS [F264]

Kd [4]: 50 nM
Binder: FVQDDCRGRPCGDADSFYEWFDQQAGYGSSSRRAPQT [F364]

IC50 in SW480 (M) in presence of IGF-1 (IGF-1R on SW480 cells [1]): 5e-07 M | IC50 in SW480 (M), peptide alone (IGF-1R on SW480 cells [1]): > 1e-05 M | IC50 in kinase assay (M), IGF-1R kinase activation by 10 nM IGF-1 [7]: 8e-07 M
Binder: EVDRDCQARPCGDAANFYDWFGQQGTE [F269]

Kd [4]: 90 nM | IC50, growth of L6 cells stimulated by IGF-1 at 3 nM (IGF-1R on L6 cells [10]): > 10000 nM | IC50, phosphorylation of IGF-1R and MAPK42/44 in response to IGF-1 treatment (IGF-1R on L6 cells [10]): 500 nM | IC50, IGF-1 dependent growth in MCF-7 cells [5]: 10000 nM
Binder: SFYSCLESLVQGPAEKSRGQWEGCRK [F293, listing 2 of 2 here]

IC50 [6]: 2700 nM
Binder: TFYSCLASLLTGTPQPNRGPWERCR [RP6]

IC50, IGF-1 dependent growth of SW480 [5]: 800 nM
Binder: QFYGCLLDLSLGVPSFGWKKKCITA [F392]

IC50, IGF-1 dependent growth of SW480 [5]: 500 nM and 1000 nM
Binder: DFYGCLLDLSLGVPSLGWRRRCIT (also called Peptide 428) [F428]

MCF7 IC50 [11]: 240 nM and 180 nM
Binder: SFYDCLLDLSIGGPSSDWRRRCITA [F441]
